To fix the notation:
B1: B5: anti-GRP94 human IgG antibody; CDRs SEQ ID NOS: 1 to 6, VH SEQ ID NO: 7, VL SEQ ID NO: 8 (antibody, V domains shown)
VH: EVQLLESGGGLVQPGGSLRLSCAASGFTFSNYYMSWVRQAPGKGLEWVSGIYPNSGSTYYADSVKGRFTISRDNSKNTLYLQMNSLRAEDTAVYYCARDPLHPARFPFDYWGQGTLVTVSS
VL: QSVLTQPPSASGTPGQRVTISCTGSSSNIGNNAVSWYQQLPGTAPKLLIYADSHRPSGVPDRFSGSKSGTSASLAISGLRSEDEADYYCGAWDASLNAYVFGGGTKLTVL
modifications: Amino acid sequence of heavy chain variable of GRP94 B5; Amino acid sequence of light chain variable of GRP94 B5
B2: E5: anti-GRP94 human IgG antibody; CDRs SEQ ID NOS: 9 to 14, VH SEQ ID NO: 15, VL SEQ ID NO: 16 (antibody, V domains shown)
VH: EVQLLESGGGLVQPGGSLRLSCAASGFTFSNYAMSWVRQAPGKGLEWVSGISSSSGSTYYADSVKGRFTTSRDNSKNTLYLQMNSLRAEDTAVYYCARDRHPFSPNWFDYWGQGTLVTVSS
VL: B1 VL with T23S, S26P, N31S, A33T, S35T, G90A, A91S, A94D, A98G
modifications: Amino acid sequence of heavy chain variable of GRP94 E5; Amino acid sequence of light chain variable of GRP94 E5
B3: 3G7: anti-GRP94 human IgG antibody; CDRs SEQ ID NOS: 25 to 30, VH SEQ ID NO: 31, VL SEQ ID NO: 32 (antibody, V domains shown)
VH: EVQLLESGGGLVQPGGSLRLSCAASGFTFSNYSMSWVRQAPGKGLEWVSGIYYGSGNKYYADSVKGRFTISRDNSKNTLYLQMNSLRAEDTAVYYCAKNLASFDYWGQGTLVTVSS
VL: B1 VL with T23S, N31S, A33S, S35N, A51S, D52N, A91T, A94S, N97S, A98G
modifications: Amino acid sequence of heavy chain variable of GRP94 3G7; Amino acid sequence of light chain variable of GRP94 3G7

Where a chain is given by its changes, count along the chain named. Entries after “also recorded” stand apart in the source; their conditions may differ.

Tested on in the first series: not listed separately
As to the kind of experiment: Protein aggregation index (UV absorbance 280/340 nm). In kind it is physicochemical. To be noted: antibody in PBS; 100×(Abs340/[Abs280−Abs340]); control HCl-aggregated GRP94 antigen. The method, then: To evaluate the production the antibodies (B5, E5, 2H5, and 3G7) of the present disclosure and the antibody aggregation after purification, each of the antibodies was added to PBS and absorbance was read at 280 nm and 340 nm using NanoDrop 2000 (Thermo Fisher Scientific). The protein aggregation index was calculated from UV absorbance according to the following equation. As a control, the GRP94 antigen that was induced by treatment with HCl to aggregate was used. Protein Aggregation Index=100×(Abs340/[Abs280−Abs340]) Equation 1
On to B1, for which the protein aggregation index entry is “low”.

In the case of B2, the protein aggregation index entry is on record as “low”.

B3: the protein aggregation index entry is recorded as “low”.

The subject of another series is HCT116 cells. As to the kind of experiment: In vitro CRC proliferation assay, HCT116. In kind it is cell-based, human. The following applies: 20 μg/mL, end point, relative to the control PBS. The method, then:
The four anti-GRP94 human IgG antibodies B5, E5, 2H5, and 3G7 of the present disclosure were examined in vitro for effect on CRC cell proliferation. For use in the efficacy assay, the four cetuximab-resistant colorectal cancer cell lines HCT116, HT29, LoVo, and HCT-8 were each grown in a culture medium (HCT116, HCT8, HT29, and LoVo: RPMI1640+10% FBS+1% Penicillin-Streptomycin) at 37° C. in T-75 flask in a 5% CO2 incubator until reaching about 80-90% confluency. The culture medium was removed by suction and the cells were washed with 10 mL of phosphate buffered saline (hereinafter PBS). After removal of PBS by suction, the cells were treated 2 mL of TrypLE Express Enzyme at 37° C. for 3 minutes in a 5% CO2 incubator. Thereafter, the cells were added with 8 mL of the culture medium, transferred to 15-mL tube, and centrifuged at 500×g for 5 minutes. After removal of the supernatant, the cells were suspended in the culture medium. From a small portion of the cell suspension, the cells were counted using the Countess II Automated Cell Counter. […] The 96-well plates were mounted on the Incucyte Zoom system. With the microscope magnification set at 4×, images were collected at intervals of 2 hours for 72 hours. From the collected images, cell growth was monitored using the IncuCyte FLR live content imaging system (Essen Bioscience, Ann Arbor, MI, USA).
For the molecule B1, the “cell growth inhibitory ability” value is recorded as “statistically significant; also recorded: excellent inhibitory activity”.

With B2, the “cell growth inhibitory ability” value is recorded as “statistically significant; also recorded: excellent inhibitory activity”.

With B3, the “cell growth inhibitory ability” value is “statistically significant; also recorded: excellent inhibitory activity”.

For the origin of these results see patent US12448436B2, “Antibody specifically binding to GRP94 or antigen-binding fragment thereof, and uses thereof” (KOOKMIN UNIVERSITY INDUSTRY ACADEMY COOPERATION FOUNDATION, priority 2020, dated 2025).
